# Results as given in US20040010124A1 (MacroGenics, published 2004).
# Target: T1, soluble form of human CD16A (sCD16A) (human, UniProt P08637 17-203)
# T1 construct: CD16A gene truncated just prior to the transmembrane region, expressed in HEK-293; The last seven residues come from vector pCDNA3.1; also called sFcRIIIa
# Experiment: ELISA, sCD16A captured by mAb LNK-16
# Protocol: The plate was washed and dilutions of recombinant antibodies starting at 0.5 μg/ml in PBS-T-BSA were then added and incubated for 1 hr at room temp. […] After stopping color development using dilute sulfuric acid, the plate was read at 450 nm.
# T1 sequence (P08637 other isoform, or with tags, fused parts or gaps limits assumed): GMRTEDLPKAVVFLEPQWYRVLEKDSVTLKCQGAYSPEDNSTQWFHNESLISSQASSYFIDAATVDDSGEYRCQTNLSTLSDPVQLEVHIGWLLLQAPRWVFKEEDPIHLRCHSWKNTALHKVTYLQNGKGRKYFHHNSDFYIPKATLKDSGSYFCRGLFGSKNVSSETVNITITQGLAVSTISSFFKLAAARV
row,Binder,binding result
1,"hu3G8VH-1/hu3G8VL-1 (antibody, human IgG1, kappa, HEK-293; also called Hu3G8-1.1) heavy: not shown light: DIVMTQSPDSLAVSLGERATINCKASQSVDFDGDSFMNWYQQKPGQPPKLLIYTTSNLESGVPDRFSGSGSGTDFTLTISSLQAEDVAVYYCQQSNEDPYTFGQGTKLEIKRTVAAPSVFIFPPSDEQLKSGTASVVCLLNNFYPREAKVQWKVDNALQSGNSQESVTEQDSKDSTYSLSSTLTLSKADYEKHKVYACEVTHQGLSSPVTKSFNRGEC",binds
2,"hu3G8VH-3/hu3G8VL-1 (antibody, V domains shown, Human Cγ1/Cκ constant regions; HEK-293) VH: QVTLRESGPALVKPTQTLTLTCTFSGFSLRTSGMGVGWIRQPPGKALEWLAHIWWDDDKRYNPALKSRLTISKDTSKNQVVLTMTNMDPVDTATYYCARINPAWFAYWGQGTLVTVSS VL: DIVMTQSPDSLAVSLGERATINCKASQSVDFDGDSFMNWYQQKPGQPPKLLIYTTSNLESGVPDRFSGSGSGTDFTLTISSLQAEDVAVYYCQQSNEDPYTFGQGTKLEIK",binds
3,"hu3G8VH-4/hu3G8VL-1 (antibody, V domains shown, Human Cγ1/Cκ constant regions; HEK-293) VH: QVTLRESGPALVKPTQTLTLTCTFSGFSLSTSGMGVGWIRQPPGKALEWLAHIWWDDDKRYNPALKSRLTISKDTSKNQVVLTMTNMDPVDTATYYCAQINPAWFDYWGQGTLVTVSS VL: DIVMTQSPDSLAVSLGERATINCKASQSVDFDGDSFMNWYQQKPGQPPKLLIYTTSNLESGVPDRFSGSGSGTDFTLTISSLQAEDVAVYYCQQSNEDPYTFGQGTKLEIK",binds
4,"hu3G8VH-5/hu3G8VL-1 (antibody, V domains shown, Human Cγ1/Cκ constant regions; HEK-293; also called Hu3G8-5.1; h3G8 5.1) VH: QVTLRESGPALVKPTQTLTLTCTFSGFSLSTSGMGVGWIRQPPGKALEWLAHIWWDDDKRYNPALKSRLTISKDTSKNQVVLTMTNMDPVDTATYYCAQINPAWFAYWGQGTLVTVSS VL: DIVMTQSPDSLAVSLGERATINCKASQSVDFDGDSFMNWYQQKPGQPPKLLIYTTSNLESGVPDRFSGSGSGTDFTLTISSLQAEDVAVYYCQQSNEDPYTFGQGTKLEIK",binds
5,"hu3G8VH-6/hu3G8VL-1 (antibody, V domains shown, Human Cγ1/Cκ constant regions; HEK-293) VH: QVTLRESGPALVKPTQTLTLTCTFSGFSLSTSGVGVGWIRQPPGKALEWLAHIWWDDDKRYNPALKSRLTISKDTSKNQVVLTMTNMDPVDTATYYCARINPAWFDYWGQGTLVTVSS VL: DIVMTQSPDSLAVSLGERATINCKASQSVDFDGDSFMNWYQQKPGQPPKLLIYTTSNLESGVPDRFSGSGSGTDFTLTISSLQAEDVAVYYCQQSNEDPYTFGQGTKLEIK",binds
6,"hu3G8VH-8/hu3G8VL-1 (antibody, V domains shown, Human Cγ1/Cκ constant regions; HEK-293) VH: QVTLRESGPALVKPTQTLTLTCTFSGFSLSTSGMGVGWIRQPPGKALEWLAHIWWDDDKRYNPALKSRLTISKDTSKNQVVLTMTNMDPVDTATYYCARINPAYFAYWGQGTLVTVSS VL: DIVMTQSPDSLAVSLGERATINCKASQSVDFDGDSFMNWYQQKPGQPPKLLIYTTSNLESGVPDRFSGSGSGTDFTLTISSLQAEDVAVYYCQQSNEDPYTFGQGTKLEIK",binds
7,"hu3G8VH-12/hu3G8VL-1 (antibody, V domains shown, Human Cγ1/Cκ constant regions; HEK-293) VH: QVTLRESGPALVKPTQTLTLTCTFSGFSLSTSGMGVGWIRQPPGKALEWLAHIWWDDDKRYSPSLKSRLTISKDTSKNQVVLTMTNMDPVDTATYYCARINPAWFAYWGQGTLVTVSS VL: DIVMTQSPDSLAVSLGERATINCKASQSVDFDGDSFMNWYQQKPGQPPKLLIYTTSNLESGVPDRFSGSGSGTDFTLTISSLQAEDVAVYYCQQSNEDPYTFGQGTKLEIK",binds
8,"hu3G8VH-14/hu3G8VL-1 (antibody, V domains shown, Human Cγ1/Cκ constant regions; HEK-293) VH: QVTLRESGPALVKPTQTLTLTCTFSGFSLSTSGMGVGWIRQPPGKALEWLAHIWWNDDKRYNPALKSRLTISKDTSKNQVVLTMTNMDPVDTATYYCARINPAWFAYWGQGTLVTVSS VL: DIVMTQSPDSLAVSLGERATINCKASQSVDFDGDSFMNWYQQKPGQPPKLLIYTTSNLESGVPDRFSGSGSGTDFTLTISSLQAEDVAVYYCQQSNEDPYTFGQGTKLEIK",binds
9,"hu3G8VH-16/hu3G8VL-1 (antibody, V domains shown, Human Cγ1/Cκ constant regions; HEK-293) VH: QVTLRESGPALVKPTQTLTLTCTFSGFSLSTSGMGVGWIRQPPGKALEWLAHIWWDDDKRYNPALKSRLTISKDTSKNQVVLTMTNMDPVDTATYYCAKINPAWFAYWGQGTLVTVSS VL: DIVMTQSPDSLAVSLGERATINCKASQSVDFDGDSFMNWYQQKPGQPPKLLIYTTSNLESGVPDRFSGSGSGTDFTLTISSLQAEDVAVYYCQQSNEDPYTFGQGTKLEIK",binds
10,"hu3G8VH-17/hu3G8VL-1 (antibody, V domains shown, Human Cγ1/Cκ constant regions; HEK-293) VH: QVTLRESGPALVKPTQTLTLTCTFSGFSLSTSGMGVGWIRQPPGKALEWLAHIWWDDDKRYNPALKSRLTISKDTSKNQVVLTMTNMDPVDTATYYCAAINPAWFAYWGQGTLVTVSS VL: DIVMTQSPDSLAVSLGERATINCKASQSVDFDGDSFMNWYQQKPGQPPKLLIYTTSNLESGVPDRFSGSGSGTDFTLTISSLQAEDVAVYYCQQSNEDPYTFGQGTKLEIK",binds
11,"hu3G8VH-18/hu3G8VL-1 (antibody, V domains shown, Human Cγ1/Cκ constant regions; HEK-293) VH: QVTLRESGPALVKPTQTLTLTCTFSGFSLSTSGMGVGWIRQPPGKALEWLAHIWWDDDKRYNPALKSRLTISKDTSKNQVVLTMTNMDPVDTATYYCAHINPAWFAYWGQGTLVTVSS VL: DIVMTQSPDSLAVSLGERATINCKASQSVDFDGDSFMNWYQQKPGQPPKLLIYTTSNLESGVPDRFSGSGSGTDFTLTISSLQAEDVAVYYCQQSNEDPYTFGQGTKLEIK",binds
12,"hu3G8VH-19/hu3G8VL-1 (antibody, V domains shown, Human Cγ1/Cκ constant regions; HEK-293) VH: QVTLRESGPALVKPTQTLTLTCTFSGFSLSTSGMGVGWIRQPPGKALEWLAHIWWDDDKRYNPALKSRLTISKDTSKNQVVLTMTNMDPVDTATYYCAQINPAYFAYWGQGTLVTVSS VL: DIVMTQSPDSLAVSLGERATINCKASQSVDFDGDSFMNWYQQKPGQPPKLLIYTTSNLESGVPDRFSGSGSGTDFTLTISSLQAEDVAVYYCQQSNEDPYTFGQGTKLEIK",binds
13,"hu3G8VH-23/hu3G8VL-1 (antibody, V domains shown, Human Cγ1/Cκ constant regions; HEK-293) VH: QVTLRESGPALVKPTQTLTLTCTFSGFSLSTSGVGVGWIRQPPGKALEWLAHIWWDDDKRYSPSLKSRLTISKDTSKNQVVLTMTNMDPVDTATYYCAKINPAYFAYWGQGTLVTVSS VL: DIVMTQSPDSLAVSLGERATINCKASQSVDFDGDSFMNWYQQKPGQPPKLLIYTTSNLESGVPDRFSGSGSGTDFTLTISSLQAEDVAVYYCQQSNEDPYTFGQGTKLEIK",binds
14,"hu3G8VH-24/hu3G8VL-1 (antibody, V domains shown, Human Cγ1/Cκ constant regions; HEK-293) VH: QVTLRESGPALVKPTQTLTLTCTFSGFSLSTSGVGVGWIRQPPGKALEWLAHIWWDDDKRYSPSLKSRLTISKDTSKNQVVLTMTNMDPVDTATYYCAAINPAYFAYWGQGTLVTVSS VL: DIVMTQSPDSLAVSLGERATINCKASQSVDFDGDSFMNWYQQKPGQPPKLLIYTTSNLESGVPDRFSGSGSGTDFTLTISSLQAEDVAVYYCQQSNEDPYTFGQGTKLEIK",binds
15,"hu3G8VH-25/hu3G8VL-1 (antibody, V domains shown, Human Cγ1/Cκ constant regions; HEK-293) VH: QVTLRESGPALVKPTQTLTLTCTFSGFSLSTSGVGVGWIRQPPGKALEWLAHIWWDDDKRYSPSLKSRLTISKDTSKNQVVLTMTNMDPVDTATYYCAHINPAYFAYWGQGTLVTVSS VL: DIVMTQSPDSLAVSLGERATINCKASQSVDFDGDSFMNWYQQKPGQPPKLLIYTTSNLESGVPDRFSGSGSGTDFTLTISSLQAEDVAVYYCQQSNEDPYTFGQGTKLEIK",binds
16,"hu3G8VH-27/hu3G8VL-1 (antibody, V domains shown, Human Cγ1/Cκ constant regions; HEK-293) VH: QVTLRESGPALVKPTQTLTLTCTFSGFSLSTSGVGVGWIRQPPGKALEWLAHIWWDDDKRYSPSLKSRLTISKDTSKNQVVLTMTNMDPVDTATYYCAKINPAYFDYWGQGTLVTVSS VL: DIVMTQSPDSLAVSLGERATINCKASQSVDFDGDSFMNWYQQKPGQPPKLLIYTTSNLESGVPDRFSGSGSGTDFTLTISSLQAEDVAVYYCQQSNEDPYTFGQGTKLEIK",binds
17,"hu3G8VH-28/hu3G8VL-1 (antibody, V domains shown, Human Cγ1/Cκ constant regions; HEK-293) VH: QVTLRESGPALVKPTQTLTLTCTFSGFSLSTSGVGVGWIRQPPGKALEWLAHIWWDDDKRYSPSLKSRLTISKDTSKNQVVLTMTNMDPVDTATYYCAAINPAYFDYWGQGTLVTVSS VL: DIVMTQSPDSLAVSLGERATINCKASQSVDFDGDSFMNWYQQKPGQPPKLLIYTTSNLESGVPDRFSGSGSGTDFTLTISSLQAEDVAVYYCQQSNEDPYTFGQGTKLEIK",binds
18,"hu3G8VH-29/hu3G8VL-1 (antibody, V domains shown, Human Cγ1/Cκ constant regions; HEK-293) VH: QVTLRESGPALVKPTQTLTLTCTFSGFSLSTSGVGVGWIRQPPGKALEWLAHIWWDDDKRYSPSLKSRLTISKDTSKNQVVLTMTNMDPVDTATYYCAHINPAYFDYWGQGTLVTVSS VL: DIVMTQSPDSLAVSLGERATINCKASQSVDFDGDSFMNWYQQKPGQPPKLLIYTTSNLESGVPDRFSGSGSGTDFTLTISSLQAEDVAVYYCQQSNEDPYTFGQGTKLEIK",binds
19,"hu3G8VH-30/hu3G8VL-1 (antibody, V domains shown, Human Cγ1/Cκ constant regions; HEK-293) VH: QVTLRESGPALVKPTQTLTLTCTFSGFSLSTSGVGVGWIRQPPGKALEWLAHIWWDDDKRYSPSLKSRLTISKDTSKNQVVLTMTNMDPVDTATYYCAQINPAYFDYWGQGTLVTVSS VL: DIVMTQSPDSLAVSLGERATINCKASQSVDFDGDSFMNWYQQKPGQPPKLLIYTTSNLESGVPDRFSGSGSGTDFTLTISSLQAEDVAVYYCQQSNEDPYTFGQGTKLEIK",binds
20,"hu3G8VH-36/hu3G8VL-1 (antibody, V domains shown, Human Cγ1/Cκ constant regions; HEK-293) VH: QITLKESGPTLVKPTQTLTLTCTFSGFSLSTSGVGVGWIRQPPGKALEWLALIWWDDDKRYSPSLKSRLTISKDTSKNQVVLTMTNMDPVDTATYYCAQINPAYFDYWGQGTLVTVSS VL: DIVMTQSPDSLAVSLGERATINCKASQSVDFDGDSFMNWYQQKPGQPPKLLIYTTSNLESGVPDRFSGSGSGTDFTLTISSLQAEDVAVYYCQQSNEDPYTFGQGTKLEIK",binds
21,"hu3G8VH-37/hu3G8VL-1 (antibody, V domains shown, Human Cγ1/Cκ constant regions; HEK-293) VH: QITLKESGPTLVKPTQTLTLTCTFSGFSLSTSGVGVGWIRQPPGKALEWLALIWWDDDKRYSPSLKSRLTISKDTSKNQVVLTMTNMDPVDTATYYCAKINPAYFAYWGQGTLVTVSS VL: DIVMTQSPDSLAVSLGERATINCKASQSVDFDGDSFMNWYQQKPGQPPKLLIYTTSNLESGVPDRFSGSGSGTDFTLTISSLQAEDVAVYYCQQSNEDPYTFGQGTKLEIK",binds
